Data on 1 substance can be found in article PMC7023979.

The assay concerns the target SIVrcm integrase A119D (simian immunodeficiency virus from red-capped mangabeys (SIVrcm)). In words: cryo-EM structure.

A word on the stoichiometry N: it is the number of molecules, sites or subunits per partner or assembly. Consider SIVrcm integrase A119D (enzyme), for which the stoichiometry N was 4.
